Where a chain is given by its changes, count along the chain named. “And” between values parts separate entries of the source, which are not always exact repeats. Equal values may be shown once. Read-outs that look alike come from different tables or passages of the source.
What was measured:
[1] = molecular target: T1, cynomolgus monkey P-cadherin ECD (cynomolgus monkey); assay: SPR
T1 construct: extracellular domain; also called cyno P-cadherin ECD; Cyno P-cadherin

Hu P-cadherin-Fc = molecular target: T2, Hu P-cadherin-Fc (human, UniProt P22223 108-654, limits assumed); assay: ELISA
T2 construct: also called recombinant human P-cadherin-Fc; human P-cadherin-Fc; not shown: Fc

[2] = molecular target: T1, cynomolgus monkey P-cadherin ECD; assay: SPR Biacore
Experimental: (§1) Binding affinity of EK-DART proteins to P-cadherin and CD3 was analyzed by SPR using a BIACORE® 3000 biosensor (GE Healthcare). The antigens huCD3εδ and either human P-cadherin-Fc or human/cynomolgus monkey/murine P-cadherin-ECD were immobilized on the CM-5 sensor chip by amine coupling kit as recommended by the manufacturer. […] All EK-DART proteins in Tables 15 and 16 comprise CD3-2.
All EK-DART proteins in Table 17 comprise CD3-2.

[3] = molecular target: T3, human P-cadherin expressed on the cell surface (human, UniProt P22223 108-829); assay: cell-based or functional assay
[4] = molecular target: T3, human P-cadherin expressed on the cell …; assay: cell ELISA, H1650 cells
[5] = molecular target: T1, cynomolgus monkey P-cadherin ECD; assay: SPR Biacore 3000, antigen immobilised
Experimental: as §1

[6] = molecular target: T1, cynomolgus monkey P-cadherin ECD; assay: SPR Biacore pH 7.4
[7] = molecular target: T1, cynomolgus monkey P-cadherin ECD; assay: SPR Biacore affinity
[8] = molecular target: T3, human P-cadherin expressed on the cell …; assay: cell-based or functional assay; remark: listed apart in the source
[9] = molecular target: T1, cynomolgus monkey P-cadherin ECD; assay: SPR Biacore pH 7.4, average
P-cadherin ECD1-Fc = molecular target: T4, P-cadherin ECD1-Fc (human, UniProt P22223 108-215); assay: protein ELISA
T4 construct: PACE was co-transfected for processing of the propeptide, so both are left out here; not shown: cleavable linker; hinge and CH2 and CH3 domains of human IgG1

P-cadherin ECD1-2-Fc = molecular target: T5, P-cadherin ECD1-2-Fc (human, UniProt P22223 108-328); assay: protein ELISA
T5 construct: Signal peptide and pro-peptide of the construct left out (see ECD1-Fc); not shown: cleavable linker; hinge and CH2 and CH3 domains of human IgG1

muP-cad-ECD [10] = molecular target: T6, muP-cad-ECD (murine, UniProt P10287 100-647); assay: SPR Biacore
T6 construct: extracellular domain; also called murine P-cadherin; murine P-cadherin ECD
T6 sequence (looked up): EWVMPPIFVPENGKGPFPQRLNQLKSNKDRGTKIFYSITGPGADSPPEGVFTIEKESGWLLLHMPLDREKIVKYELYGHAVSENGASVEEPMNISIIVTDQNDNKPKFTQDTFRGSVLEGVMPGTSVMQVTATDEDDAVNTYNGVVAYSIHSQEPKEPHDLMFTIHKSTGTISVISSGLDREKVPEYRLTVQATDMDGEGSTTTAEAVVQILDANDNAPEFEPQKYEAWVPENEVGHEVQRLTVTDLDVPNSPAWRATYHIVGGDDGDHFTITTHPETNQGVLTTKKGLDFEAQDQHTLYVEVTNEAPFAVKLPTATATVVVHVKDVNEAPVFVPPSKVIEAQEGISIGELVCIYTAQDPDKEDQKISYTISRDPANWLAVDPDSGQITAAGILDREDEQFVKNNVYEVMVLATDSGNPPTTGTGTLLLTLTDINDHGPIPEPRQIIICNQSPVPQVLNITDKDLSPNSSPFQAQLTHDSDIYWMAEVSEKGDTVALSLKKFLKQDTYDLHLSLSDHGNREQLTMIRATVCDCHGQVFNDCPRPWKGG

[11] = molecular target: T1, cynomolgus monkey P-cadherin ECD; assay: SPR Biacore; remark: listed apart in the source
[12] = molecular target: T3, human P-cadherin expressed on the cell …; assay: cell-based or functional assay; remark: listed apart in the source
[13] = molecular target: T1, cynomolgus monkey P-cadherin ECD; assay: SPR Biacore affinity; remark: listed apart in the source
[14] = molecular target: T1, cynomolgus monkey P-cadherin ECD; assay: SPR Biacore, average
[15] = molecular target: T3, human P-cadherin expressed on the cell …; assay: cell-based or functional assay; remark: listed apart in the source
[16] = molecular target: T3, human P-cadherin expressed on the cell …; assay: cell ELISA, H1650 cells; remark: listed apart in the source
huP-cad-ECD = molecular target: T7, huP-cad-ECD (human, UniProt P22223 108-654); assay: ELISA, recombinant protein
T7 construct: extracellular domain; also called recombinant human P-cadherin; human P-cadherin-ECD

huP-cad-ECD biotinylated = molecular target: T8, huP-cad-ECD biotinylated (human, UniProt P22223 108-654, biotinylated (sites not given)); assay: ELISA, recombinant protein
T8 construct: extracellular domain

muP-cad-ECD [17] = molecular target: T6, muP-cad-ECD; assay: ELISA, recombinant protein
[18] = molecular target: T3, human P-cadherin expressed on the cell …; assay: cell ELISA, CHO-huPcad cells
[19] = molecular target: T3, human P-cadherin expressed on the cell …; assay: cell ELISA, SW480-huPcad cells

T3 sequence (P22223 108-829): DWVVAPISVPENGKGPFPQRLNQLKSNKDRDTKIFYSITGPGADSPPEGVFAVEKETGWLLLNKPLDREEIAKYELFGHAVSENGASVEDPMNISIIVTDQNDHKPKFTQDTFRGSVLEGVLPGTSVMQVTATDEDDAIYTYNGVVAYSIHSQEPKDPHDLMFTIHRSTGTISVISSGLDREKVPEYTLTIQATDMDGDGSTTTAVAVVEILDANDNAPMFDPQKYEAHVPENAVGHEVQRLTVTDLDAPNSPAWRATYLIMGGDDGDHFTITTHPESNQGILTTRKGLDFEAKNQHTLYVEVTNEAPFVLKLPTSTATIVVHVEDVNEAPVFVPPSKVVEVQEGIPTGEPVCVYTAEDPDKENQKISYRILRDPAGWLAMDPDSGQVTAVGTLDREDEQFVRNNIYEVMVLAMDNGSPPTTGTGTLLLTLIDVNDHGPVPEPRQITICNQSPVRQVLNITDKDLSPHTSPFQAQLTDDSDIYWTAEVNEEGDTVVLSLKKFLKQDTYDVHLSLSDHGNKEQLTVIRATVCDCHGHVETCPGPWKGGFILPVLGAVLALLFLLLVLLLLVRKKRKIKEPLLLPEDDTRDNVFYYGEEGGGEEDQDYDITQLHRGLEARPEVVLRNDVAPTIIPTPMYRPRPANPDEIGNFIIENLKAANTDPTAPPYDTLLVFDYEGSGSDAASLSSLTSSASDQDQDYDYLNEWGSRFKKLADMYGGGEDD
T8 sequence (P22223 108-654): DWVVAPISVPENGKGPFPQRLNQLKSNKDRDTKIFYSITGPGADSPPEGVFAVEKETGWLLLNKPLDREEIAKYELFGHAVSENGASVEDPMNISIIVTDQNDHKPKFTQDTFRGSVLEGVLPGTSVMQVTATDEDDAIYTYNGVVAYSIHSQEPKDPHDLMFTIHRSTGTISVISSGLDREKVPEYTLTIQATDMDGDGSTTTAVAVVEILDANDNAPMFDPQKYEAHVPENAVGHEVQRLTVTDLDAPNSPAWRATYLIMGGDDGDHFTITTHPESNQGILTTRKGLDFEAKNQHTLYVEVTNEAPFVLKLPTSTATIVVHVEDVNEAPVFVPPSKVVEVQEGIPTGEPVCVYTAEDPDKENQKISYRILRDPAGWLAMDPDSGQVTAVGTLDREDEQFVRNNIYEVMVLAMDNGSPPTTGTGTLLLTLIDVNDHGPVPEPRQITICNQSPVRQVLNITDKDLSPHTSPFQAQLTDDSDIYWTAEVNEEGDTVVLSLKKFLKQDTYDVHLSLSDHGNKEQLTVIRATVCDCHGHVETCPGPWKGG
T7 sequence (P22223 108-654): as above
T4 sequence (P22223 108-215): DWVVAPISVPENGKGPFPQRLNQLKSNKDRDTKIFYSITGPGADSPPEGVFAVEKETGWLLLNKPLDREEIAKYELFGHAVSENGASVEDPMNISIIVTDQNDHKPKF
T2 sequence (P22223 108-654 limits assumed): as the sequence (P22223 108-654) above
T5 sequence (P22223 108-328): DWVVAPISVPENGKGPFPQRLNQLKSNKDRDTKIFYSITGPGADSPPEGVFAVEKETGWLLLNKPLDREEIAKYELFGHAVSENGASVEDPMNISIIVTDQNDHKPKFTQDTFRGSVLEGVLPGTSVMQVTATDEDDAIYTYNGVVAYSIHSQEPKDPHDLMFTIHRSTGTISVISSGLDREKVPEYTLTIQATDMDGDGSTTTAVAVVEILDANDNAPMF

B1: 35 EK-DART (bispecific antibody)
chain 1: QSVLTQPPSVSAAPGQKVTISCSGSSSNIGNNYVSWYQQLPGTAPKLLIYDNNKRPSGIPDRFSGSKSGTSATLGITGLQTGDEADYYCGTWDSSLSAVVFGGGTKLTVLGGGSGGGGEVQLVESGGGLVQPGGSLRLSCAASGFTFNTYAMNWVRQAPGKGLEWVARIRSKYNNYATYYADSVKDRFTISRDDSKNSLYLQMNSLKTEDTAVYYCVRHGNFGNSYVSWFAYWGQGTLVTVSSGGCGGGKVAALKEKVAALKEKVAALKEKVAALKE
chain 2: QAVVTQEPSLTVSPGGTVTLTCRSSTGAVTTSNYANWVQQKPGQAPRGLIGGTNKRAPWTPARFSGSLLGGKAALTITGAQAEDEADYYCALWYSNLWVFGGGTKLTVLGGGGSGGGGEVQLVQSGAEVKKPGASVKVSCKASGYTFTSYGISWVRQAPGQGLEWMGWISAYNGNTNYAQKLQGRVTMTTDTSTSTAYMELRSLRSDDTAVYYCATIDTASAFDIWGQGTMVTVSSGGCGGGEVAALEKEVAALEKEVAALEKEVAALEK
notes: also called P-CAD 35 EK-DART (CD3-2); parental 35 EK-DART
Kd [1]: 42.8 nM | EC50 (Hu P-cadherin-Fc): 1.92 nM | Kd [2]: 35 nM | koff [2]: 0.0215 s⁻¹ | kon [2]: 614000 M⁻¹ s⁻¹ | T cell Cytotoxicity [3]: 0.33 nM | EC50 [4]: 24.9 nM | Kd [5]: 43.4 nM | koff [5]: 0.0138 s⁻¹ | kon [5]: 318000 M⁻¹ s⁻¹

B2: 153 VF-DART (bispecific antibody)
chain 1: QSVLTQPPSVSAAPGQKVTISCSGSSSNIGNNYVSWYQQLPGTAPKLLIYDNNKRPSGIPDRFSGSKSGTSATLGITGLQTGDEADYYCGTWDSSLSGVVFGGGTKLTVLGGGSGGGGEVQLVESGGGLVQPGGSLRLSCAASGFTFSTYAMNWVRQAPGKGLEWVGRIRSKYNNYATYYADSVKGRFTISRDDSKNSLYLQMNSLKTEDTAVYYCVRHGNFGNSYVSWFAYWGQGTLVTVSS
chain 2: QAVVTQEPSLTVSPGGTVTLTCRSSTGAVTTSNYANWVQQKPGQAPRGLIGGTNKRAPWTPARFSGSLLGGKAALTITGAQAEDEADYYCALWYSNLWVFGGGTKLTVLGGGGSGGGGEVQLVQSGAEVKKPGASVKVSCKASGYTFTSYGISWVRQAPGQGLEWMGWISAYNGNTNYAQKLQGRVTMTTDTSTSTAYMELRSLRSDDTAVYYCATIDTANAFGIWGQGTMVTVSS
modifications: One interchain disulfide between the Linker 2 cysteines; these linkers are left out of the letters.
notes: not shown: The C-terminal cysteine Linker 2 on each chain
Kd [6]: 0.332 nM and 0.304 nM | koff [6]: 0.00024 s⁻¹ and 0.000229 s⁻¹ | kon [6]: 722000 M⁻¹ s⁻¹ and 752000 M⁻¹ s⁻¹ | t½ [6]: 45.4 min and 47.6 min | Kd [7]: 0.31 nM | DU145 CTL (LDH) EC50 [8]: 0.0004 nM | HCT116 CTL (Luc) EC50 [8]: 0.0005 nM | Kd [9]: 0.318 nM

B3: 154 VF-DART (bispecific antibody, not shown: small tags and cut ends)
chain 1: B2 chain 1 with G98S, V99Y, G103T, L107V
chain 2: B2 chain 2 with N221T, G224D
Kd [7]: 2.85 nM | DU145 CTL (LDH) EC50 [8]: 0.0024 nM | HCT116 CTL (Luc) EC50 [8]: 0.008 nM

B4: 153 LP-DART (bispecific antibody)
chain 1: QSVLTQPPSVSAAPGQKVTISCSGSSSNIGNNYVSWYQQLPGTAPKLLIYDNNKRPSGIPDRFSGSKSGTSATLGITGLQTGDEADYYCGTWDSSLSGVVFGGGTKLTVLGGGSGGGGEVQLVESGGGLVQPGGSLRLSCAASGFTFSTYAMNWVRQAPGKGLEWVGRIRSKYNNYATYYADSVKGRFTISRDDSKNSLYLQMNSLKTEDTAVYYCVRHGNFGNSYVSWFAYWGQGTLVTVSSGCPPCPAPEAAGAPSVFLFPPKPKDTLMISRTPEVTCVVVDVSHEDPEVKFNWYVDGVEVHNAKTKPREEQYNSTYRVVSVLTVLHQDWLNGKEYKCKVSNKALPAPIEKTISKAKGQPREPQVCTLPPSREEMTKNQVSLWCLVKGFYPSDIAVEWESNGQPENNYKTTPPVLDSDGSFFLYSKLTVDKSRWQQGNVFSCSVMHEALHNHYTQKSLSLSPG
chain 2: QAVVTQEPSLTVSPGGTVTLTCRSSTGAVTTSNYANWVQQKPGQAPRGLIGGTNKRAPWTPARFSGSLLGGKAALTITGAQAEDEADYYCALWYSNLWVFGGGTKLTVLGGGGSGGGGEVQLVQSGAEVKKPGASVKVSCKASGYTFTSYGISWVRQAPGQGLEWMGWISAYNGNTNYAQKLQGRVTMTTDTSTSTAYMELRSLRSDDTAVYYCATIDTANAFGIWGQGTMVTVSSGCPPCPAPEAAGAPSVFLFPPKPKDTLMISRTPEVTCVVVDVSHEDPEVKFNWYVDGVEVHNAKTKPREEQYNSTYRVVSVLTVLHQDWLNGKEYKCKVSNKALPAPIEKTISKAKGQPREPQVYTLPPCREEMTKNQVSLSCAVKGFYPSDIAVEWESNGQPENNYKTTPPVLDSDGSFFLVSKLTVDKSRWQQGNVFSCSVMHEALHNHYTQKSLSLSPG
binding result (P-cadherin ECD1-Fc): no binding | binding result (P-cadherin ECD1-2-Fc): no binding | binding result (muP-cad-ECD [10]): no binding | Kd [11]: 0.683 nM and 0.359 nM | koff [11]: 0.0002 s⁻¹ and 0.000209 s⁻¹ | kon [11]: 293000 M⁻¹ s⁻¹ and 581000 M⁻¹ s⁻¹ | t½ [11]: 54.4 min and 52.2 min | CTL assay on CHO P-cadherin cells, cell viability after 48 hours, EC50 [12]: 0.00041 nM | Kd [6]: 0.683 nM and 0.359 nM | koff [6]: 0.0002 s⁻¹ and 0.000209 s⁻¹ | kon [6]: 293000 M⁻¹ s⁻¹ and 581000 M⁻¹ s⁻¹ | t½ [6]: 54.4 min and 52.2 min | Kd [13]: 0.521 nM | Kd [14]: 0.521 nM | DU145 CTL (LDH) EC50 [15]: 0.0006 nM | HCT116 CTL (Luc) EC50 [15]: 0.0004 nM | Kd [9]: 0.521 nM

B5: 154 LP-DART (bispecific antibody)
chain 1: B4 chain 1 with G98S, V99Y, G103T, L107V
chain 2: B4 chain 2 with N221T, G224D
Kd [11]: 5.47 nM and 5.53 nM | koff [11]: 0.00332 s⁻¹ and 0.00343 s⁻¹ | kon [11]: 607000 M⁻¹ s⁻¹ and 620000 M⁻¹ s⁻¹ | t½ [11]: 3.27 min and 3.18 min | Kd [13]: 5.5 nM | Kd [14]: 5.5 nM | DU145 CTL (LDH) EC50 [15]: 0.0017 nM | HCT116 CTL (Luc) EC50 [15]: 0.0072 nM

B6: 35 scFv-Fc (Fc fusion)
VH: EVQLVQSGAEVKKPGASVKVSCKASGYTFTSYGISWVRQAPGQGLEWMGWISAYNGNTNYAQKLQGRVTMTTDTSTSTAYMELRSLRSDDTAVYYCATIDTASAFDIWGQGTMVTVSS
VL: QSVLTQPPSVSAAPGQKVTISCSGSSSNIGNNYVSWYQQLPGTAPKLLIYDNNKRPSGIPDRFSGSKSGTSATLGITGLQTGDEADYYCGTWDSSLSAVVFGGGTKLTVL
notes: also called P-CAD 35; P-cadherin clone 35 scFv-Fc
EC50 [16]: 0.163 nM | EC50 (huP-cad-ECD): 2.5 nM | EC50 (huP-cad-ECD biotinylated): 0.0176 nM | binding result (muP-cad-ECD [17]): no binding | EC50 [18]: 0.276 nM | EC50 [19]: 0.173 nM

B7: 34 scFv-Fc (Fc fusion)
VH: B6 VH
VL: B6 VL with L4V, V99W
notes: also called P-CAD 34; P-cadherin clone 34 scFv-Fc
EC50 [16]: 0.494 nM | EC50 (huP-cad-ECD): 11.2 nM | EC50 (huP-cad-ECD biotinylated): 0.194 nM | binding result (muP-cad-ECD [17]): no binding | EC50 [18]: 0.394 nM | EC50 [19]: 0.442 nM

B8: 33 scFv-Fc (Fc fusion)
VH: B6 VH with E1Q, V2M, T98L, D100G, T101S, A102G, S103V
VL: B6 VL with V99Y, G103T, L107V
notes: also called P-CAD 33; P-cadherin clone 33 scFv-Fc
EC50 [16]: 0.567 nM | EC50 (huP-cad-ECD): 3.46 nM | EC50 (huP-cad-ECD biotinylated): 0.101 nM | binding result (muP-cad-ECD [17]): no binding | EC50 [18]: 0.493 nM | EC50 [19]: 0.424 nM

From patent US20160002357A1 (Pfizer, published 2016)
